{
  "source": "paper PMC6591306",
  "assay_in_all_cases": "cysteine cross-linking, non-reducing SDS-PAGE, quantification of fluorescent blots",
  "key": {"[1]": {"target": "double mutant of GB1 carrying one cysteine in TM5 (I771C^5.42) and one in TM7 (L838C^7.34)", "conditions": "+ CuP, co-expressed with GB2Ctr, parent: est. 2, read off a plot"}, "[2]": {"target": "GB1 double cysteine mutant with one cysteine in TM5 and one in TM1 (co-expressed with a non-mutated GB2)", "conditions": "+ CuP, co-expressed with GB2Ctr, parent: est. 2, read off a plot"}, "GB1 1.45/6.55": {"target": "GB1 1.45/6.55", "conditions": "+ CuP, co-expressed with GB2Ctr, parent: est. 2, read off a plot"}, "[3]": {"target": "GB1 double cysteine mutant with one cysteine in TM4 and one in TM1 (co-expressed with a non-mutated GB2)", "conditions": "+ CuP, co-expressed with GB2Ctr, parent: est. 2, read off a plot"}, "GB2^6.55": {"target": "GB2^6.55", "conditions": "+ CuP; cell surface SNAP-GB1 labelled with fluorescent SNAP substrate; no ligand; parent: est. 2; read off a plot"}, "GB2^5.41": {"target": "GB2^5.41", "conditions": "+ CuP; cell surface SNAP-GB1 labelled with fluorescent SNAP substrate; no ligand; parent: est. 2; read off a plot"}, "GB1 4.52/6.55": {"target": "GB1 4.52/6.55", "conditions": "+ CuP, co-expressed with GB2Ctr, parent: est. 2, read off a plot"}, "[4]": {"target": "GB2 L711C^6.59 (in GB2^Ctr) (UniProt O88871)", "conditions": "+ CuP; cell surface SNAP-GB1 labelled with fluorescent SNAP substrate; no ligand; parent: est. 2; read off a plot"}, "GB2^5.45": {"target": "GB2^5.45", "conditions": "+ CuP; cell surface SNAP-GB1 labelled with fluorescent SNAP substrate; no ligand; parent: est. 2; read off a plot"}, "[5]": {"target": "GB1 double cysteine mutant with one cysteine in TM4 and one in TM7 (co-expressed with a non-mutated GB2)", "conditions": "+ CuP, co-expressed with GB2Ctr, parent: est. 2, read off a plot"}, "[6]": {"target": "GB2^5.42 (cysteine mutant of GB2^Ctr at position 5.42) (UniProt O88871)", "conditions": "+ CuP; cell surface SNAP-GB1 labelled with fluorescent SNAP substrate; no ligand; parent: est. 2; read off a plot"}, "GB2^6.54": {"target": "GB2^6.54", "conditions": "+ CuP; cell surface SNAP-GB1 labelled with fluorescent SNAP substrate; no ligand; parent: est. 2; read off a plot"}, "GB2^5.40": {"target": "GB2^5.40", "conditions": "+ CuP; cell surface SNAP-GB1 labelled with fluorescent SNAP substrate; no ligand; parent: est. 2; read off a plot"}},
  "data": [
    {"substance": "GB1^Ctr (control GABAB1 subunit: SNAP-tagged rat GB1a truncated in the C-terminal region) I771C; L838C", "values": [
      {"measurement": "other: Oligomer (% total GB1)", "setting": "[1]; + GABA 100 μM", "result": 2.5, "unit": "% total GB1"},
      {"measurement": "other: Oligomer (% total GB1)", "setting": "[1]; no agonist", "result": 1, "unit": "% total GB1"}
    ]},
    {"substance": "GB1^Ctr (control GABAB1 subunit: SNAP-tagged rat GB1a truncated in the C-terminal region) 1.45 Cys; I771C", "values": [
      {"measurement": "other: Oligomer (% total GB1)", "setting": "[2]; + GABA 100 μM", "result": 12, "unit": "% total GB1"},
      {"measurement": "other: Oligomer (% total GB1)", "setting": "[2]; no agonist", "result": 5, "unit": "% total GB1"}
    ]},
    {"substance": "GB1^Ctr (control GABAB1 subunit: SNAP-tagged rat GB1a truncated in the C-terminal region) 1.45 Cys; 6.55 Cys", "values": [
      {"measurement": "other: Oligomer (% total GB1)", "setting": "GB1 1.45/6.55; + GABA 100 μM", "result": 4, "unit": "% total GB1"},
      {"measurement": "other: Oligomer (% total GB1)", "setting": "GB1 1.45/6.55; no agonist", "result": 2.5, "unit": "% total GB1"}
    ]},
    {"substance": "GB1^Ctr (control GABAB1 subunit: SNAP-tagged rat GB1a truncated in the C-terminal region) 1.45 Cys; 4.52 Cys", "values": [
      {"measurement": "other: Oligomer (% total GB1)", "setting": "[3]; + GABA 100 μM", "result": 32, "unit": "% total GB1"},
      {"measurement": "other: Oligomer (% total GB1)", "setting": "[3]; no agonist", "result": 24, "unit": "% total GB1"}
    ]},
    {"substance": "m1; m2 GB1:6.55 Cys; GB2:6.55 Cys", "values": [
      {"measurement": "other: Change of GB1-GB2 dimer cross-linking (%)", "setting": "GB2^6.55", "result": 32, "unit": "%"}
    ]},
    {"substance": "m1; m2 GB1:5.41 Cys; GB2:5.41 Cys", "values": [
      {"measurement": "other: Change of GB1-GB2 dimer cross-linking (%)", "setting": "GB2^5.41", "result": 28, "unit": "%"}
    ]},
    {"substance": "GB1^Ctr (control GABAB1 subunit: SNAP-tagged rat GB1a truncated in the C-terminal region) 4.52 Cys; 6.55 Cys", "values": [
      {"measurement": "other: Oligomer (% total GB1)", "setting": "GB1 4.52/6.55; + GABA 100 μM", "result": 21, "unit": "% total GB1"},
      {"measurement": "other: Oligomer (% total GB1)", "setting": "GB1 4.52/6.55; no agonist", "result": 16, "unit": "% total GB1"}
    ]},
    {"substance": "m1; m2 GB1:I824C; GB2:L711C", "values": [
      {"measurement": "other: Change of GB1-GB2 dimer cross-linking (%)", "setting": "[4]", "result": 28, "unit": "%"}
    ]},
    {"substance": "m1; m2 GB1:5.45 Cys; GB2:5.45 Cys", "values": [
      {"measurement": "other: Change of GB1-GB2 dimer cross-linking (%)", "setting": "GB2^5.45", "result": 24, "unit": "%"}
    ]},
    {"substance": "GB1^Ctr (control GABAB1 subunit: SNAP-tagged rat GB1a truncated in the C-terminal region) 4.52 Cys; L838C", "values": [
      {"measurement": "other: Oligomer (% total GB1)", "setting": "[5]; + GABA 100 μM", "result": 12, "unit": "% total GB1"},
      {"measurement": "other: Oligomer (% total GB1)", "setting": "[5]; no agonist", "result": 7, "unit": "% total GB1"}
    ]},
    {"substance": "m1; m2 GB1:I771C; GB2:5.42 Cys", "values": [
      {"measurement": "other: Change of GB1-GB2 dimer cross-linking (%)", "setting": "[6]", "result": 14, "unit": "%"}
    ]},
    {"substance": "m1; m2 GB1:6.54 Cys; GB2:6.54 Cys", "values": [
      {"measurement": "other: Change of GB1-GB2 dimer cross-linking (%)", "setting": "GB2^6.54", "result": 23, "unit": "%"}
    ]},
    {"substance": "m1; m2 GB1:5.40 Cys; GB2:5.40 Cys", "values": [
      {"measurement": "other: Change of GB1-GB2 dimer cross-linking (%)", "setting": "GB2^5.40", "result": 12, "unit": "%"}
    ]}
  ]
}
